According to patent US20190127468A1:
Where “and” joins values, the source holds several entries; their conditions need not be identical. Equal entries are not always repeated.

B1: anti-mouse CTLA4 mAb 9H10 (antibody, from another filing)
scFv: YPYDVPDYAGAQPARSDIVMTQSPSSLAVSVGEKVTISCKSSQSLLYGSSHYLAWYQQKVGQSPKLLIYWASTRHTGIPDRFIGSGSGTDFTLSLSSVQAEDMADYFCQQYFSTPWTFGAGTRVEIKSGSGGGSGGGSGGGSQVQLLQSESELVKPGASVKLSCKTSGYTFTDYYIHWVKQKPGQGLEWIGLINPNNDGTNYNQKFQGKATLTADKSSSTAYMELNSLTFDDSVIYFCARASSRLRMARTTSDYYAMDYWGQGIQVTVSSVDSSGSGGCKPCICTVPEVSSVFIFPPKPKDVLTITLTPKVTCVVVDISKDDPEVQFSWFVDDVEVHTAQTQPREEQFNSTFRSVSELPIMHQDWLNGKEFKCRVNSAAFPAPIEKTISKTKGRPKAPQVYTIPPPKEQMAKDKVSLTCMITDFFPEDITVEWQWNGQPAENYKNTQPIMDTDGSYFVYSKLNVQKSNWEAGNTFTCSVLHEGLHNHHTEKSLSHSPGK
B2: chimeric L3D10 antibody (antibody, V domains shown)
VH: QVQLKESGPGLVAPSQSLSITCTVSGFSLTSYGLSWVRQPPGKGLEWLGVIWYDGNTNFHSALISRLTISKDNSKSQVFLELNSLQTDDTATYYCAKTEGHYYGSNYGYYALDYWGQGTSVTVSS
VL: DIQMTQSPASLSVSVGETVTITCRASENIYSNLAWYQQKQGKSPQLLVYAATNLADGVPSRFSGSGSGTQYSLKINSLQSEDFGTYFCQHLWGTPYTFGGGTKLEIKR
modifications: biotinylated (sites not given)

Legend:
[1] = target: mouse CTLA4-Fc fusion protein (mouse) (UniProt P09793); experiment: ELISA, binding to plate-bound mouse CTLA4-Fc
[2] = target: human CTLA-4Fc mutant protein M11 (human); experiment: ELISA on coated target; binder 10 ng/ml
Chain of human CTLA-4Fc mutant protein M11 (human) (chain, as listed by the source mutant limits assumed): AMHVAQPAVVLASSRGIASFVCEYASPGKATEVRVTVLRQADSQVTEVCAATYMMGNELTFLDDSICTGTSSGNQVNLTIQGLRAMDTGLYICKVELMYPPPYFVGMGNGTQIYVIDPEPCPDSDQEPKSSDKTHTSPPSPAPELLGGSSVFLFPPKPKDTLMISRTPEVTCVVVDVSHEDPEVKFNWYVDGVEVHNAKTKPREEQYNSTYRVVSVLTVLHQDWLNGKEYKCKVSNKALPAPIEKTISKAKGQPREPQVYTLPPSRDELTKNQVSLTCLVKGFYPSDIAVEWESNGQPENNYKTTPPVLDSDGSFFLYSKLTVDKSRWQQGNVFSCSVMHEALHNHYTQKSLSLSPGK

mouse CTLA4-Fc (mouse) [3] = target: mouse CTLA4-Fc (mouse) (UniProt P09793); experiment: ELISA on coated target; binder 10 ng/ml
[4] = target: human CTLA-4Fc mutant protein M11 (human); experiment: ELISA on coated target; binder 100 ng/ml
mouse CTLA4-Fc (mouse) [5] = target: mouse CTLA4-Fc (mouse) (UniProt P09793); experiment: ELISA on coated target; binder 100 ng/ml
[6] = target: human CTLA-4Fc mutant protein M11 (human); experiment: ELISA on coated target; binder 1000 ng/ml
mouse CTLA4-Fc (mouse) [7] = target: mouse CTLA4-Fc (mouse) (UniProt P09793); experiment: ELISA on coated target; binder 1000 ng/ml
[8] = target: human CTLA-4Fc mutant protein M11 (human); experiment: ELISA on coated target; binder 0 (background)
mouse CTLA4-Fc (mouse) [9] = target: mouse CTLA4-Fc (mouse) (UniProt P09793); experiment: ELISA on coated target; binder 0 (background)

Binder | EC50 (read off the curve) [1] [µg/mL] | OD450 [2] | OD450 (mouse CTLA4-Fc (mouse) [3]) | OD450 [4] | OD450 (mouse CTLA4-Fc (mouse) [5]) | OD450 [6] | OD450 (mouse CTLA4-Fc (mouse) [7]) | OD450 [8] | OD450 (mouse CTLA4-Fc (mouse) [9])
B1 | 1 |  |  |  |  |  |  |  | 
B2 |  | 0.19 OD and 0.194 OD | 0.201 OD and 0.18 OD | 0.752 OD and 0.746 OD | 0.303 OD and 0.314 OD | 2.89 OD and 2.91 OD | 0.942 OD and 0.94 OD | 0.171 OD and 0.155 OD | 0.19 OD and 0.189 OD
